# Measured values taken from article PMC8764530, “Pseudomonas aeruginosa C-Terminal Processing Protease CtpA Assembles into a Hexameric Structure That Requires Activation by a Spiral-Shaped Lipoprotein-Binding Partner” (mBio, 2022).
# Molecular target: the molecule itself
# Test: SEC; gel filtration of CtpA proteins, Superdex 200 prep-grade (16 × 600 mm), 10 mM Tris pH 8.0, 150 mM NaCl
row,Protein,stoichiometry N
1,"CtpA(ΔC6) (enzyme, Pseudomonas aeruginosa CtpA, ΔN37 construct (from amino acid 38) with the last six residues Ser-431 to Asn-436 removed; also called CtpA(ΔC6) dimer; source: E. coli BL21(DE3), purified (HiTrap-Ni, thrombin, HiTrap-Q, Superdex 200); not shown: His6, N-terminal, cleaved) SAPLPLDELRTFAEVLDRVKAAYVEPVDDKTLLENAIKGMLSNLDPHSAYLGPEDFAELQESTSGEFGGLGIEVGSEDGFIKVVSPIDDTPAARAGIQPGDLIVQIDGKPTKGQSMTEAVDSMRGKAGSPITLTIVRDGGRPFDVELKRAIIKVKSVKSQVLEPGYAYLRITQFQVNTGEEVVKALNQLRKDNKGRLKGLVLDLRNNPGGVLQSAVEVADAFLTKGLIVYTKGRIANSELRFSADPADPSDKVPLVVLINGGSASAAEIVAGALQDQKRAILMGTDSFGKGSVQTVLPLNNDRALKLTTALYYTPNGRSIQAQGIVPDIEVGRAKVTQERSSFEGFKEADLQGHLANGNGGADRPTGKRAAPSERPQDSDYQLSQALSLLKGL",2
2,"CtpA-L426K L430K (enzyme, Pseudomonas aeruginosa CtpA, ΔN37 construct (amino acid 38 to the C terminus, Asn-436) with L426K and L430K; also called LLKK; source: E. coli BL21(DE3), purified (HiTrap-Ni, thrombin, HiTrap-Q, Superdex 200); not shown: His6, N-terminal, cleaved) SAPLPLDELRTFAEVLDRVKAAYVEPVDDKTLLENAIKGMLSNLDPHSAYLGPEDFAELQESTSGEFGGLGIEVGSEDGFIKVVSPIDDTPAARAGIQPGDLIVQIDGKPTKGQSMTEAVDSMRGKAGSPITLTIVRDGGRPFDVELKRAIIKVKSVKSQVLEPGYAYLRITQFQVNTGEEVVKALNQLRKDNKGRLKGLVLDLRNNPGGVLQSAVEVADAFLTKGLIVYTKGRIANSELRFSADPADPSDKVPLVVLINGGSASAAEIVAGALQDQKRAILMGTDSFGKGSVQTVLPLNNDRALKLTTALYYTPNGRSIQAQGIVPDIEVGRAKVTQERSSFEGFKEADLQGHLANGNGGADRPTGKRAAPSERPQDSDYQLSQALSKLKGKSVTRGN",~2
3,"CtpA-L426A L430A (enzyme, Pseudomonas aeruginosa CtpA, ΔN37 construct (amino acid 38 to the C terminus, Asn-436) with L426A and L430A; also called LLAA; source: E. coli BL21(DE3), purified (HiTrap-Ni, thrombin, HiTrap-Q, Superdex 200); not shown: His6, N-terminal, cleaved) SAPLPLDELRTFAEVLDRVKAAYVEPVDDKTLLENAIKGMLSNLDPHSAYLGPEDFAELQESTSGEFGGLGIEVGSEDGFIKVVSPIDDTPAARAGIQPGDLIVQIDGKPTKGQSMTEAVDSMRGKAGSPITLTIVRDGGRPFDVELKRAIIKVKSVKSQVLEPGYAYLRITQFQVNTGEEVVKALNQLRKDNKGRLKGLVLDLRNNPGGVLQSAVEVADAFLTKGLIVYTKGRIANSELRFSADPADPSDKVPLVVLINGGSASAAEIVAGALQDQKRAILMGTDSFGKGSVQTVLPLNNDRALKLTTALYYTPNGRSIQAQGIVPDIEVGRAKVTQERSSFEGFKEADLQGHLANGNGGADRPTGKRAAPSERPQDSDYQLSQALSALKGASVTRGN",~2
